According to the supplement of paper PMC9732359:
± gives the uncertainty stated by the source.

Assay: protein stability index of a GFP-peptide fusion (yeast GPS) (PSI 1-4); higher = more stable; sorted into four equal gates, so the index is relative within each strain
Outline: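 Plasmids isolated from each sorting gate were PCR-amplified and Illumina-sequenced, and barcodes assigned the reads to strains. The gates, four of equal size, were set by GFP/Cherry fluorescence ratio on mid-log cultures in leucine-free medium. These cultures were yeast carrying a pooled library of tiled 17-residue yeast protein peptides fused downstream of GFP on a plasmid that also expresses Cherry. The protein stability index is the sum of every gate's read frequency times its gate number.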

Sequence	protein stability index (doa10∆)	protein stability index (pdr5∆)	protein stability index (san1∆)	protein stability index (ubr1∆)
AIVVGWRAIIKAIFPNT [FAS1]	2.44 ± 0.1	2.71 ± 0.14	2.41 ± 0.086	2.33 ± 0.15
AKEVYKIHQQLLFKARL [GAL11]		3.18 ± 0.18		2.84 ± 0.25
AKICALLFFNFSHSLTT [NUT1]	1.43 ± 0.045	1.45 ± 0.036	1.4 ± 0.051	1.27 ± 0.026
AKKLIQSLPPTLKVNRL [RPL38]	2.15 ± 0.039	2.2 ± 0.039	2.02 ± 0.048	2.27 ± 0.036
AKKLSSFDFGNENEDED [ARP9]	3.24 ± 0.11	3.13 ± 0.12		3.15 ± 0.087
AKKSTTISKESTPDQRK [ESC2]	2.59 ± 0.1	2.78 ± 0.12	2.94 ± 0.13	2.92 ± 0.054
AKLLQENDTTLVKTKEL [FAS1]	2.66 ± 0.14	2.08 ± 0.27		
AKLSERSNGSVASLSKR [YJL039C/NUP192]	2.33 ± 0.052	2.06 ± 0.043	1.81 ± 0.054	1.89 ± 0.035
AKNKSTRINGLNSNNSI [REC8]	3.43 ± 0.14	3.15 ± 0.098	3.25 ± 0.061	3.27 ± 0.073
AKPDEKKNDEVSKPAFS [YJL041W/NSP1]		3.11 ± 0.19	2.94 ± 0.29	3.2 ± 0.14
AKPFQVTKEYFQDVYDL [FAS1]	2.96 ± 0.12	2.81 ± 0.074	2.4 ± 0.088	2.72 ± 0.063
ALAEGHGDAAVLLVEKY [NAS6]		3.12 ± 0.1	3.04 ± 0.09	2.6 ± 0.11
ALAQQKLLTPQDMEAAK [GAL11]	3.2 ± 0.12	3.38 ± 0.13	3.4 ± 0.1	3.32 ± 0.095
ALELDDTVVSRVNEMVQ [ECM29]	3.16 ± 0.17			3.16 ± 0.1
ALERNWPIVNSKVYFNN [RPN12]	1.93 ± 0.08	1.7 ± 0.072	1.38 ± 0.12	1.9 ± 0.087
ALFVFYSPNTLGHPDNY [COB]	1.39 ± 0.09	1.36 ± 0.069	2.06 ± 0.11	1.87 ± 0.054
ALGEFADWDPESMAYTA [YML031W/NDC1]	3.52 ± 0.14	3.54 ± 0.089	3.36 ± 0.083	3.26 ± 0.064
ALNDVYLDADVAKLANW [YML031W/NDC1]	2.85 ± 0.2	3.52 ± 0.22	3.67 ± 0.22	3.73 ± 0.24
ALNNAIPGGPKFEPLYP [PRP8]	3.1 ± 0.069	2.96 ± 0.086	2.95 ± 0.09	3.06 ± 0.046
ALNSMCASIPIAIIKDT [RRP46]	1.48 ± 0.12	1.67 ± 0.08	1.8 ± 0.097	1.79 ± 0.073
ALRALARSGLRIGRIED [RPS14A]		2.12 ± 0.096	2.33 ± 0.1	2.01 ± 0.071
ALRDVKNNNNANNNGSN [GAL11]	3.33 ± 0.095	2.95 ± 0.14	3.13 ± 0.12	3.41 ± 0.11
ALSGLYYKNFHNSVKRY [SNM1]	1.59 ± 0.27		1.17 ± 0.17	1.22 ± 0.093
ALTQMDQDKVNFASGDN [RPB3]	3.33 ± 0.14	3.5 ± 0.13	3.08 ± 0.15	3.65 ± 0.28
ALYVLRERIRKGLQIYQ [PRP8]	2.54 ± 0.24	2.85 ± 0.11	2.26 ± 0.13	2.41 ± 0.29
AMSTVTLGVVGKSEKLS [SKI6]	2.81 ± 0.079	3.19 ± 0.081	2.75 ± 0.099	2.93 ± 0.073

Sequence	protein stability index (doa10∆)	protein stability index (pdr5∆)	protein stability index (san1∆)	protein stability index (ubr1∆)
AMTIYWDDHTKKPLSMA [CDC53]	2.87 ± 0.077	2.67 ± 0.091	2.69 ± 0.048	2.85 ± 0.062
ANDEEAYIKLLDQTKDT [SNF2]	2.98 ± 0.088	3.21 ± 0.072	3.4 ± 0.069	3 ± 0.1
ANDFQLTIVTCKQFPKL [SRB8]	1.83 ± 0.047	1.96 ± 0.041	1.82 ± 0.073	1.82 ± 0.034
ANFGEILEDFRVIKDFK [YMR153W/NUP53]	3.07 ± 0.14	3.4 ± 0.16	3.37 ± 0.068	3.28 ± 0.096
ANGTVVSFIKNGEEIVG [MTR3]	1.34 ± 0.07	1.6 ± 0.13	1.45 ± 0.21	1.91 ± 0.11
ANICLTFLESINGINWR [SIN4]	2.54 ± 0.043	2.31 ± 0.046	2.46 ± 0.058	2.36 ± 0.042
ANKEKRAIILERNAAYQ [RPL7A]	1.2 ± 0.072	1.38 ± 0.081	1.14 ± 0.11	1.32 ± 0.2
ANPAGASQPEPTTNEPA [YJL041W/NSP1]	2.82 ± 0.12	3 ± 0.11	2.92 ± 0.1	3.16 ± 0.095
ANRVTDKLTRVHDKIWC [PRE3]	2 ± 0.12	2.42 ± 0.085	2.38 ± 0.063	2.34 ± 0.095
ANSSTIRVTNSFALPFE [RPN8]	2.46 ± 0.065	2.18 ± 0.05	2.73 ± 0.063	3.14 ± 0.039
ANTGGGLFGANSNSNSG [YGL172W/NUP49]	2.11 ± 0.11	2.74 ± 0.077	1.76 ± 0.17	2.22 ± 0.14
APIGKHYVVLDTNVVLQ [DIS3]	2.93 ± 0.13	2.81 ± 0.14	2.04 ± 0.16	2.31 ± 0.12
APLFKKNSSRPMPPIRG [SMD3]	2.42 ± 0.059	2.29 ± 0.064	2.39 ± 0.062	2.5 ± 0.061
APLKHGVGILYKGMASN [BRR2]	1.93 ± 0.078	1.68 ± 0.076	1.38 ± 0.13	1.3 ± 0.11
APLVLLSALDHYERTQT [RPN8]	2.45 ± 0.051	2.45 ± 0.053	2.39 ± 0.057	2.42 ± 0.039
APNTLTNILISPLNTTT [YML103C/NUP188]	2.23 ± 0.062	2.13 ± 0.057	2.03 ± 0.086	1.82 ± 0.045
APRQEISEEETTVKPLF [YAR002W/NUP60]	3.22 ± 0.11	3.22 ± 0.11	3.23 ± 0.067	3.56 ± 0.17
APTPAAPGASVPATAAP [SWI1]	2.93 ± 0.068	3.05 ± 0.054	3.11 ± 0.042	3.21 ± 0.05
AQFYLGKRIAYVYRASK [RPL33A]	1.81 ± 0.068	1.62 ± 0.076	1.36 ± 0.096	1.74 ± 0.069
AQHESFLRQKICLMTLI [RPN9]	1.26 ± 0.072	1.33 ± 0.082	1.15 ± 0.11	1.56 ± 0.064
AQKCGWTIPHKKWNDLK [SIR2]	3.25 ± 0.057	3.26 ± 0.086	3.26 ± 0.058	2.94 ± 0.038
AQLTLKRCKHFELGGEK [RPL42A]	1.93 ± 0.12	2.46 ± 0.11	2.89 ± 0.069	2.56 ± 0.076
AQQLVGVYKRDNRTKST [SMC4]	3.11 ± 0.2	3.04 ± 0.2		
AQYFYSGAYSYPDFRHY [DIS3]	1.43 ± 0.056	1.43 ± 0.09	1.87 ± 0.16	1.56 ± 0.081
ARDEILPLRLQFNEFIQ [PGD1]	2.55 ± 0.083	3.01 ± 0.065	2.74 ± 0.078	2.79 ± 0.058
ARGLTATGKKSRGINKG [RPL15A]	3.57 ± 0.19	3.37 ± 0.15	3.3 ± 0.071	3.16 ± 0.068
